This assay has as its target Savinase® (subtilisin 309) (UniProt P29600). The assay is described as follows: cell-based or functional assay.
UniProt P29600, sequence (P29600 whole entry): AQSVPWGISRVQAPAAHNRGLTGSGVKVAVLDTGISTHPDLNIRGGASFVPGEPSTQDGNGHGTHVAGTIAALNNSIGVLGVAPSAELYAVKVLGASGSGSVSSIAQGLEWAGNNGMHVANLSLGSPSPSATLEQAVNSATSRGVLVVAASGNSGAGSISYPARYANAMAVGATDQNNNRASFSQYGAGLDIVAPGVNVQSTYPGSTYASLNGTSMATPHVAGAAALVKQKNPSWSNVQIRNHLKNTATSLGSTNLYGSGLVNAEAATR

In turn, “trypsin inhibitor type IV-0 (Ovo-inhibitor), Sigma T-1886 (from UniProt P10184 69-517)” registered an RA (%) (Residual Activity in the Ovo-inhibition Assay; hydrolysis of Suc-Ala-Ala-Pro-Phe-pNA with versus without inhibitor) below 5%.

These data come from patent US20040241820A1.
